From US20210388087A1 (Chugai, published 2021)
Numbering of substitutions follows the chain as printed. In names and notes the source's numbering stands.

B1: CE115HA000 S62E one-arm antibody (antibody, human IgG1, kappa, L234A L235A, N297A, name in Kabat numbering)
heavy: QVQLVESGGGVVQPGRSLRLSCAASGFTFSNAWMHWVRQAPGKGLEWVAQIKAKSNNYATYYAEEVKGRFTISRDDSKNSLYLQMNSLKTEDTAVYYCRYVHYGAYYGVDAWGQGTTVTVSSASTKGPSVFPLAPSSKSTSGGTAALGCLVKDYFPEPVTVSWNSGALTSGVHTFPAVLQSSGLYSLSSVVTVPSSSLGTQTYICNVNHKPSNTKVDKKVEPKSCDKTHTCPPCPAPEAAGGPSVFLFPPKPKDTLMISRTPEVTCVVVDVSHEDPEVKFNWYVDGVEVHNAKTKPREEQYASTYRVVSVLTVLHQDWLNGKEYKCKVSNKALPAPIEKTISKAKGQPREPQVYTLPPSRCELTKNQVSLSCAVKGFYPSDIAVEWESNGQPENNYKTTPPVLDSDGSFFLVSKLTVDKSRWQQGNVFSCSVMHEALHNHYTQKSLSLSPDYKDDDDK
chain: EPKSSDKTHTCPPCPAPELLGGPSVFLFPPKPKDTLMISRTPEVTCVVVDVSHEDPEVKFNWYVDGVEVHNAKTKPREEQYNSTYRVVSVLTVLHQDWLNGKEYKCKVSNKALPAPIEKTISKAKGQPREPQVCTLPPSRDELTKNQVSLWCLVKGFYPSDIAVEWESNGQPENNYKTTPPVLDSDGSFFLYSKLTVDKSRWQQGNVFSCSVMHEALHNRYTQKSLSLSP
light: DIVMTQSPLSLPVTPGEPASISCRSSQSLVHSNRNTYLHWYQQKPGQAPRLLIYKVSNRFSGVPDRFSGSGSGTDFTLKISRVEAEDVGVYYCGQGTQVPYTFGQGTKLEIKRTVAAPSVFIFPPSDEQLKSGTASVVCLLNNFYPREAKVQWKVDNALQSGNSQESVTEQDSKDSTYSLSSTLTLSKADYEKHKVYACEVTHQGLSSPVTKSFNRGEC
B2: CE115HA000 V100cE one-arm antibody (antibody, human IgG1, kappa, L234A L235A, N297A, name in Kabat numbering)
heavy: B1 heavy with E65S, V109E
chain: B1 chain
light: B1 light
B3: CE115HA000 V11L one-arm antibody (antibody, human IgG1, kappa, L234A L235A, N297A, name in Kabat numbering)
heavy: B1 heavy with V11L, E65S
chain: B1 chain
light: B1 light
B4: CE115HA000 V95A one-arm antibody (antibody, human IgG1, kappa, L234A L235A, N297A, name in Kabat numbering)
heavy: B1 heavy with E65S, V101A
chain: B1 chain
light: B1 light
B5: CE115HA000 T57I one-arm antibody (antibody, human IgG1, kappa, L234A L235A, N297A, name in Kabat numbering)
heavy: B1 heavy with T60I, E65S
chain: B1 chain
light: B1 light
B6: CE115HA000 T28S one-arm antibody (antibody, human IgG1, kappa, L234A L235A, N297A, name in Kabat numbering)
heavy: B1 heavy with T28S, E65S
chain: B1 chain
light: B1 light
B7: CE115HA000 S74A one-arm antibody (antibody, human IgG1, kappa, L234A L235A, N297A, name in Kabat numbering)
heavy: B1 heavy with E65S, S77A
chain: B1 chain
light: B1 light
B8: CE115HA000 W33H one-arm antibody (antibody, human IgG1, kappa, L234A L235A, N297A, name in Kabat numbering)
heavy: B1 heavy with W33H, E65S
chain: B1 chain
light: B1 light
B9: CE115HA000 Y58A one-arm antibody (antibody, human IgG1, kappa, L234A L235A, N297A, name in Kabat numbering)
heavy: B1 heavy with Y61A, E65S
chain: B1 chain
light: B1 light
B10: CE115HA000 V95G one-arm antibody (antibody, human IgG1, kappa, L234A L235A, N297A, name in Kabat numbering)
heavy: B1 heavy with E65S, V101G
chain: B1 chain
light: B1 light
B11: CE115HA000 Y55G one-arm antibody (antibody, human IgG1, kappa, L234A L235A, N297A, name in Kabat numbering)
heavy: B1 heavy with Y58G, E65S
chain: B1 chain
light: B1 light
B12: CE115HA000 S62P one-arm antibody (antibody, human IgG1, kappa, L234A L235A, N297A, name in Kabat numbering)
heavy: B1 heavy with E65P
chain: B1 chain
light: B1 light
B13: CE115HA000 V95E one-arm antibody (antibody, human IgG1, kappa, L234A L235A, N297A, name in Kabat numbering)
heavy: B1 heavy with E65S, V101E
chain: B1 chain
light: B1 light
B14: CE115HA000 V95S one-arm antibody (antibody, human IgG1, kappa, L234A L235A, N297A, name in Kabat numbering)
heavy: B1 heavy with E65S, V101S
chain: B1 chain
light: B1 light
B15: CE115HA000 T28D one-arm antibody (antibody, human IgG1, kappa, L234A L235A, N297A, name in Kabat numbering)
heavy: B1 heavy with T28D, E65S
chain: B1 chain
light: B1 light
B16: CE115HA000 S62K one-arm antibody (antibody, human IgG1, kappa, L234A L235A, N297A, name in Kabat numbering)
heavy: B1 heavy with E65K
chain: B1 chain
light: B1 light
B17: CE115HA000 W33Y one-arm antibody (antibody, human IgG1, kappa, L234A L235A, N297A, name in Kabat numbering)
heavy: B1 heavy with W33Y, E65S
chain: B1 chain
light: B1 light
B18: CE115HA000 V100cD one-arm antibody (antibody, human IgG1, kappa, L234A L235A, N297A, name in Kabat numbering)
heavy: B1 heavy with E65S, V109D
chain: B1 chain
light: B1 light
B19: CE115HA000 V95K one-arm antibody (antibody, human IgG1, kappa, L234A L235A, N297A, name in Kabat numbering)
heavy: B1 heavy with E65S, V101K
chain: B1 chain
light: B1 light
B20: CE115HA000 Y58D one-arm antibody (antibody, human IgG1, kappa, L234A L235A, N297A, name in Kabat numbering)
heavy: B1 heavy with Y61D, E65S
chain: B1 chain
light: B1 light
B21: CE115HA000 S74P one-arm antibody (antibody, human IgG1, kappa, L234A L235A, N297A, name in Kabat numbering)
heavy: B1 heavy with E65S, S77P
chain: B1 chain
light: B1 light
B22: CE115HA000 T57K one-arm antibody (antibody, human IgG1, kappa, L234A L235A, N297A, name in Kabat numbering)
heavy: B1 heavy with T60K, E65S
chain: B1 chain
light: B1 light
B23: CE115HA000 V95D one-arm antibody (antibody, human IgG1, kappa, L234A L235A, N297A, name in Kabat numbering)
heavy: B1 heavy with E65S, V101D
chain: B1 chain
light: B1 light
B24: CE115HA000 W33A one-arm antibody (antibody, human IgG1, kappa, L234A L235A, N297A, name in Kabat numbering)
heavy: B1 heavy with W33A, E65S
chain: B1 chain
light: B1 light
B25: CE115HA000 Y55S one-arm antibody (antibody, human IgG1, kappa, L234A L235A, N297A, name in Kabat numbering)
heavy: B1 heavy with Y58S, E65S
chain: B1 chain
light: B1 light
B26: CE115HA000 W33D one-arm antibody (antibody, human IgG1, kappa, L234A L235A, N297A, name in Kabat numbering)
heavy: B1 heavy with W33D, E65S
chain: B1 chain
light: B1 light
B27: CE115HA000 S77T one-arm antibody (antibody, human IgG1, kappa, L234A L235A, N297A, name in Kabat numbering)
heavy: B1 heavy with E65S, S80T
chain: B1 chain
light: B1 light
B28: CE115HA000 W33L one-arm antibody (antibody, human IgG1, kappa, L234A L235A, N297A, name in Kabat numbering)
heavy: B1 heavy with W33L, E65S
chain: B1 chain
light: B1 light
B29: CE115HA000 V100cP one-arm antibody (antibody, human IgG1, kappa, L234A L235A, N297A, name in Kabat numbering)
heavy: B1 heavy with E65S, V109P
chain: B1 chain
light: B1 light
B30: CE115HA000 T57N one-arm antibody (antibody, human IgG1, kappa, L234A L235A, N297A, name in Kabat numbering)
heavy: B1 heavy with T60N, E65S
chain: B1 chain
light: B1 light
B31: CE115HA000 Y55D one-arm antibody (antibody, human IgG1, kappa, L234A L235A, N297A, name in Kabat numbering)
heavy: B1 heavy with Y58D, E65S
chain: B1 chain
light: B1 light
B32: CE115HA000 W33F one-arm antibody (antibody, human IgG1, kappa, L234A L235A, N297A, name in Kabat numbering)
heavy: B1 heavy with W33F, E65S
chain: B1 chain
light: B1 light
B33: CE115HA000 T57A one-arm antibody (antibody, human IgG1, kappa, L234A L235A, N297A, name in Kabat numbering)
heavy: B1 heavy with T60A, E65S
chain: B1 chain
light: B1 light

Biological target: T1, CD3 epsilon homodimer protein (UniProt P07766 23-126)
T1 construct: immobilized on Sensor chip CM4 by amine coupling; also called CD3 (CD3 epsilon)
Test: SPR (Biacore T200), CD3 epsilon homodimer on CM4 chip, one-arm antibody as analyte, 25 C;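 also: homodimer attached to the sensor surface via amine coupling, HBS-EP+ used as running buffer during binding runs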

T1 sequence (P07766 23-126): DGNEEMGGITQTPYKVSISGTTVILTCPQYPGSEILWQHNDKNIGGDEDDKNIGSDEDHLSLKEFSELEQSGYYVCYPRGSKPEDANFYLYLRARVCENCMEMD

ratio of amounts bound (altered form / CE115HA000)	Binder
0.92	B1
0.46	B2
1	B3
0.11	B4
0.61	B5
0.91	B6
1.05	B7
0.13	B8
0.22	B9
0.19	B10
0.55	B11
1	B12
0.24	B13
0.22	B14
0.56	B15
1.19	B16
0.66	B17

ratio of amounts bound (altered form / CE115HA000)	Binder
0.44	B18
0.64	B19
0.11	B20
0.91	B21
1.32	B22
0.24	B23
0.1	B24
0.26	B25
0.1	B26
0.9	B27
0.1	B28
0.2	B29
0.97	B30
0.45	B31
0.65	B32
0.98	B33
